Data on 13 molecules can be found in US20240327512A1 (DUKE UNIVERSITY, published 2024).

Residue numbers refer to the chain shown, from its start. Where only a bound is given, the exact number is not on record here.

First the molecules themselves.
B1: antibody clone 9D10 (antibody, V domains shown)
VH: EVQLVESGGGLVQPGRSLKLSCAASGFTFSDYGMAWVRQAPTKGLEWVASISNSGGRTFYRDSVKGRFTVSRDNAKSTLYLQMDSLRSEGTATYYCTTIGGGSTFDYWGQGVMVTVSS
VL: DVVMTQTPPSLSVAIGQSVSISCKSSQSLVYSDGKTYLHWLLQSPGRSPKRLIYQVSNLGSGVPDRFSGTGSQKDFTLKISRVEAEDLGVYYCAQTTHFPPTFGSGTKLEIK
B2: antibody clone 13F4 (antibody, V domains shown)
VH: B1 VH with Q3H, G26R, D31N, G66A, V70I, N74S, K76E, G90D
VL: B1 VL
B3: antibody clone 7F12 (antibody, V domains shown)
VH: B1 VH with D31N, A49T, N53Y, F59Y, V70I, G90D, T91S, T98P, I99V
VL: B1 VL
B4: antibody clone 14B3 (antibody, V domains shown)
VH: B1 VH with T28S, D31N, S54N, V70I, D84H, G90D
VL: B1 VL with I21M, R47G
B5: antibody clone 21A3 (antibody, V domains shown)
VH: EVKLLESGGGLVQPGGSMRLSCAASGFTFTDFYMNWIRQPAGKAPEWLGLIRNKANGYTTQYNPSVKGRFTISRDNTQNMLYLQMNTLRGEDTATYYCARIGINNGGSLDYWGQGVMVTVSS
VL: DILINQSPASLTVSAGEKVTMSCKSSQSLLYSEKNQDYLAWYQQKPGQSPKLLMYGASYRHTGVPDRFTGSGSGTDFTLTISSVQAEDLADYYCEQTYSYPYTFGAGTKLELK
notes: Rat monoclonal IgG from hybridoma; also called TREMX antibody
B6: antibody clone 7A12 (antibody, V domains shown)
VH: B5 VH
VL: B5 VL
notes: as for B5
B7: antibody clone 1G6 (antibody, V domains shown)
VH: B5 VH with M18L, A23V, Y58F, Q61E, N79H, G90A
VL: B5 VL with A15T, K34N, N35K, S49F, M54I, Y59N, S82N, S83I
notes: as for B5
B8: antibody clone 8A11 (antibody, V domains shown)
VH: B5 VH with A55T, N56K, Q61E, P64T, T87S, G90P, I103V
VL: B5 VL with N5I, E17A, K18R, K34N, S49F, M54I, Y59N
notes: as for B5
B9: antibody clone 14D3 (antibody, V domains shown)
VH: B5 VH with S7F, K43R, A55T, N56K, Q61E, P64R, T87S, G90P, I103V
VL: B5 VL with N5I, E17A, K18R, K34N, S49F, M54I, Y59N
notes: as for B5
B10: antibody clone 18F9 (antibody, V domains shown)
VH: B5 VH with A23V, A24V, P40A, A55V, T59R, Q61E, T77I, G90A
VL: B5 VL with K34N, S49F, M54I, Y59N
notes: as for B5
B11: antibody clone 14D8 (antibody, V domains shown)
VH: B5 VH with Q61V
VL: B5 VL with A15T, K24R, S49F, M54I
notes: as for B5
B12: antibody clone 15C5 (antibody, V domains shown)
VH: B5 VH with N56Y, Q61E, N79D, G90A, N105Y
VL: B5 VL with M21V, K34S, S49F, M54I, D91H
notes: as for B5
B13: antibody clone 10C3 (antibody, V domains shown)
VH: B5 VH with K43E, A44T, A55T, N56K, Q61E, T87S, G90P, I103T
VL: B5 VL with N5I, E17A, K18R, K34N, S49F, M54I, Y59N
notes: as for B5

One experiment concerns the target T1, human TREM2 (Triggering Receptor Expressed on Myeloid cells-2), wild-type (human, UniProt Q9NZC2 19-230).
T1 sequence (looked up): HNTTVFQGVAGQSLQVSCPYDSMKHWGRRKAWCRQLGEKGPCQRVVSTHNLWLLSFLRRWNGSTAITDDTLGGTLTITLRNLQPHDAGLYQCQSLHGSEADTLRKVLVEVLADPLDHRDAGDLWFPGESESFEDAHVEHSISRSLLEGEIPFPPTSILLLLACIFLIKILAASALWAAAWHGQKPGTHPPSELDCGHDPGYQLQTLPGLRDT
The experiment can be described thus: cell-based or functional assay.
In the case of B1, the “decrease of TREM2 cleavage” value is around 70% and the “increase of the level of mature TREM2” value was at most 5 fold.

Regarding B2, the “decrease of TREM2 cleavage” value is around 70% and the “increase of the level of mature TREM2” value was at most 5 fold.

Take B3: the “decrease of TREM2 cleavage” value was around 70% and the “increase of the level of mature TREM2” value was at most 5 fold.

Take B4: the “decrease of TREM2 cleavage” value was around 70% and the “increase of the level of mature TREM2” value was at most 5 fold.

The target of a further experiment is T1, human TREM2 (Triggering Receptor …). Briefly: hybridoma supernatant screen: peptide ELISA and detection of TREM2 on the cell surface. On the procedure: Human TREM2-reactive hybridoma supernatants are screened for their ability to detect TREM2 on the cell surface of HEK293 Flp-In cells stably overexpressing human wild-type TREM2. This procedure is described in Kleinberger, G., et al., TREM2 mutations implicated in neurodegeneration impair cell surface transport and phagocytosis. Sci Transl Med, 2014. 6(243): p. 243. In particular, HEK293 Flp-In cells either expressing human full-length TREM2 or empty vector (control) are incubated with the respective TREM2-reactive supernatants. Binding of TREM2-reactive supernatants is visualized using isotype-specific antibodies. A detailed description of the generation and selection of monoclonal antibodies against the TREM2 cleavage site is given in the Examples.
A peptide comprising the amino acid sequence of residues 145-155 (SEQ ID NO:2) of human TREM2 or residues 153-162 (SEQ ID NO:3) of human TREM2 was synthesized and coupled at the N-terminus to ovalbumin or biotin (Peps4LS, Heidelberg, Germany). Rats were immunized subcutaneously (s.c.) and intraperitoneally (i.p.) with a mixture of 50 μg OVA-coupled peptide in […] PBS, 5 nmol CpG2006 (TIB MOLBIOL, Berlin, Germany), and […] incomplete Freund's adjuvant. After 6 weeks, a boost without Freund's adjuvant was given i.p. and s.c. 3 days before fusion. Fusion of the myeloma cell line P3X63-Ag8.653 with the rat immune spleen cells was performed using polyethylene glycol 1500 according to standard procedure (Koehler and Milstein, Nature. 1975, 256:495-497). After fusion, the cells were plated in 96-well plates using RPMI 1640 with 20% fetal calf serum, penicillin/streptomycin, glutamine, pyruvate, and non-essential amino acids supplemented with HAT HybriMax medium supplement (Sigma,). Hybridoma supernatants were tested in an enzyme-linked immunoassay using biotinylated peptides (0.2 μg/ml) comprising the amino acid sequence of residues 145-155 of human TREM2 or residues 153-162 of human TREM2 bound to avidin-coated plates. After blocking with PBS/2% FCS, hybridoma supernatants were added for 30 min. After one wash with PBS, bound antibodies were detected with a cocktail of HRP-conjugated mAbs against the four rat IgG isotypes. HRP was visualized with ready to use TMB substrate (1-Step™ Ultra TMB-ELISA, Thermo).
A general note: An ELISA detects its analyte on a solid surface through an enzyme-linked reagent.
In the case of B5, the binding result is on record as “binds”.

Consider B6, for which the binding result is “binds”.

As to B7, the binding result is reported as “binds”.

Consider B8, for which the binding result is “binds”.

B9: the binding result is given as “binds”.

B10: the binding result was “binds”.

On to B11, for which the binding result is reported as “binds”.

B12: the binding result was “binds”.

For B13, the binding result is “binds”.
